Measured values published in patent publication EP2170953B1.

Key:
[1] = molecular target: Aβ1-42 peptide, high molecular weight (HMW) proto-fibrillar (PF) oligomer enriched preparation (human); assay: ELISA on coated fraction, Ab 0.0156 µg/ml
[2] = molecular target: Aβ1-42 peptide, low molecular weight (LMW) monomer preparation (human); assay: ELISA on coated fraction, Ab 0.0156 µg/ml
[3] = molecular target: Aβ1-42 peptide, monomer-enriched preparation; assay: ELISA assay 3, Ab 1:32 of 0.5 µg/ml
[4] = molecular target: Aβ1-42 peptide, monomer-enriched preparation; assay: ELISA mean of 3, Ab 1:32 of 0.5 µg/ml
[5] = molecular target: Aβ1-42 peptide, oligomer-enriched preparation; assay: ELISA mean of 3, Ab 1:32 of 0.5 µg/ml
[6] = molecular target: Aβ1-42 peptide, high molecular weight (HMW) proto-fibrillar (PF) oligomer enriched preparation (human); assay: ELISA, Ab 0.25 µg/ml; proto-fibrils against LMW monomers (given without sign)
[7] = molecular target: Aβ1-42 peptide, monomer-enriched preparation; assay: ELISA mean of 3, Ab 1:2 of 0.5 µg/ml
[8] = molecular target: Aβ1-42 peptide, oligomer-enriched preparation; assay: ELISA mean of 3, Ab 1:2 of 0.5 µg/ml
[9] = molecular target: Aβ1-42 peptide, high molecular weight (HMW) proto-fibrillar (PF) oligomer enriched preparation (human); assay: ELISA, Ab 0.0625 µg/ml; proto-fibrils against LMW monomers (given without sign)
[10] = molecular target: Aβ1-42 peptide, high molecular weight (HMW) proto-fibrillar (PF) oligomer enriched preparation (human); assay: ELISA, Ab 0.125 µg/ml; proto-fibrils against LMW monomers (given without sign)
[11] = molecular target: Aβ1-42 peptide, monomer-enriched preparation; assay: ELISA mean of 3, Ab 1:4 of 0.5 µg/ml
[12] = molecular target: Aβ1-42 peptide, oligomer-enriched preparation; assay: ELISA mean of 3, Ab 1:4 of 0.5 µg/ml
[13] = molecular target: Aβ1-42 peptide, monomer-enriched preparation; assay: ELISA assay 1, Ab 1:8 of 0.5 µg/ml
[14] = molecular target: Aβ1-42 peptide, oligomer-enriched preparation; assay: ELISA assay 1, Ab 1:8 of 0.5 µg/ml
[15] = molecular target: Aβ1-42 peptide, monomer-enriched preparation; assay: ELISA assay 1, Ab 1:64 of 0.5 µg/ml
[16] = molecular target: Aβ1-42 peptide, oligomer-enriched preparation; assay: ELISA assay 1, Ab 1:64 of 0.5 µg/ml
[17] = molecular target: Aβ1-42 peptide, high molecular weight (HMW) proto-fibrillar (PF) oligomer enriched preparation (human); assay: ELISA on coated fraction, Ab 0.125 µg/ml
[18] = molecular target: Aβ1-42 peptide, low molecular weight (LMW) monomer preparation (human); assay: ELISA on coated fraction, Ab 0.125 µg/ml
[19] = molecular target: Aβ1-42 peptide, monomer-enriched preparation; assay: ELISA mean of 3, Ab 1:64 of 0.5 µg/ml
[20] = molecular target: Aβ1-42 peptide, oligomer-enriched preparation; assay: ELISA mean of 3, Ab 1:64 of 0.5 µg/ml
[21] = molecular target: Aβ1-42 peptide, monomer-enriched preparation; assay: ELISA assay 3, Ab 1:64 of 0.5 µg/ml
[22] = molecular target: Aβ1-42 peptide, oligomer-enriched preparation; assay: ELISA assay 3, Ab 1:64 of 0.5 µg/ml
[23] = molecular target: Aβ1-42 peptide, monomer-enriched preparation; assay: ELISA assay 3, Ab 1:2 of 0.5 µg/ml
[24] = molecular target: Aβ1-42 peptide, oligomer-enriched preparation; assay: ELISA assay 3, Ab 1:2 of 0.5 µg/ml
[25] = molecular target: Aβ1-42 peptide, high molecular weight (HMW) proto-fibrillar (PF) oligomer enriched preparation (human); assay: ELISA on coated fraction, Ab 0.25 µg/ml
[26] = molecular target: Aβ1-42 peptide, low molecular weight (LMW) monomer preparation (human); assay: ELISA on coated fraction, Ab 0.25 µg/ml
[27] = molecular target: Aβ1-42 peptide, high molecular weight (HMW) proto-fibrillar (PF) oligomer enriched preparation (human); assay: ELISA, Ab 0.0156 µg/ml; proto-fibrils against LMW monomers (given without sign)
[28] = molecular target: Aβ1-42 peptide, monomer-enriched preparation; assay: ELISA assay 2, Ab 1:64 of 0.5 µg/ml
[29] = molecular target: Aβ1-42 peptide, oligomer-enriched preparation; assay: ELISA assay 2, Ab 1:64 of 0.5 µg/ml
[30] = molecular target: Aβ1-42 peptide, monomer-enriched preparation; assay: ELISA assay 3, Ab 1:1 of 0.5 µg/ml
[31] = molecular target: Aβ1-42 peptide, oligomer-enriched preparation; assay: ELISA assay 3, Ab 1:1 of 0.5 µg/ml
[32] = molecular target: Aβ1-42 peptide, monomer-enriched preparation; assay: ELISA assay 3, Ab 1:128 of 0.5 µg/ml
[33] = molecular target: Aβ1-42 peptide, oligomer-enriched preparation; assay: ELISA assay 3, Ab 1:128 of 0.5 µg/ml
[34] = molecular target: Aβ1-42 peptide, monomer-enriched preparation; assay: ELISA assay 3, Ab 1:4 of 0.5 µg/ml
[35] = molecular target: Aβ1-42 peptide, oligomer-enriched preparation; assay: ELISA assay 3, Ab 1:4 of 0.5 µg/ml
[36] = molecular target: Aβ1-42 peptide, high molecular weight (HMW) proto-fibrillar (PF) oligomer enriched preparation (human); assay: ELISA on coated fraction, Ab 0.0313 µg/ml
[37] = molecular target: Aβ1-42 peptide, low molecular weight (LMW) monomer preparation (human); assay: ELISA on coated fraction, Ab 0.0313 µg/ml
[38] = molecular target: Aβ1-42 peptide, monomer-enriched preparation; assay: ELISA assay 1, Ab 1:16 of 0.5 µg/ml
[39] = molecular target: Aβ1-42 peptide, oligomer-enriched preparation; assay: ELISA assay 1, Ab 1:16 of 0.5 µg/ml
[40] = molecular target: Aβ1-42 peptide, monomer-enriched preparation; assay: ELISA assay 1, Ab 1:32 of 0.5 µg/ml
[41] = molecular target: Aβ1-42 peptide, oligomer-enriched preparation; assay: ELISA assay 1, Ab 1:32 of 0.5 µg/ml

Chain of Aβ1-42 peptide, high molecular weight (HMW) proto-fibrillar (PF) oligomer enriched preparation (human) (peptide, as listed by the source, form in doubt): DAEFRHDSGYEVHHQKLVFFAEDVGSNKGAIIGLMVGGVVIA
Chain of Aβ1-42 peptide, monomer-enriched preparation (peptide, as listed by the source, form in doubt): as above
Chain of Aβ1-42 peptide, low molecular weight (LMW) monomer preparation (human) (peptide, as listed by the source, form in doubt): as above
Chain of Aβ1-42 peptide, oligomer-enriched preparation (peptide, as listed by the source, form in doubt): as above

6E10 control antibody
O.D. [1]: 0.201 O.D.
O.D. [2]: 0.207 O.D.
O.D. [3]: 1.54 O.D.
O.D. (mean) [4]: 1.36 O.D.
O.D. (mean) [5]: 1.32 O.D.
O.D. difference [6]: 0.12 O.D.
O.D. (mean) [7]: 3.59 O.D.
O.D. (mean) [8]: 3.59 O.D.
O.D. difference [9]: 0.03 O.D.
O.D. difference [10]: 0.14 O.D.
O.D. (mean) [11]: 3.27 O.D.
O.D. (mean) [12]: 3.37 O.D.
O.D. [13]: 2.67 O.D.
O.D. [14]: 2.73 O.D.
O.D. [15]: 0.81 O.D.
O.D. [16]: 0.93 O.D.
O.D. [17]: 0.863 O.D.
O.D. [18]: 0.999 O.D.
O.D. (mean) [19]: 0.94 O.D.
O.D. (mean) [20]: 0.92 O.D.
O.D. [21]: 1.08 O.D.
O.D. [22]: 0.95 O.D.
O.D. [23]: 4 O.D.
O.D. [24]: 3.83 O.D.
O.D. [25]: 1.44 O.D.
O.D. [26]: 1.56 O.D.
O.D. difference [27]: 0.01 O.D.
O.D. [28]: 0.94 O.D.
O.D. [29]: 0.88 O.D.
O.D. [30]: 4.04 O.D.
O.D. [31]: 3.89 O.D.
O.D. [32]: 0.86 O.D.
O.D. [33]: 0.66 O.D.
O.D. [34]: 3.52 O.D.
O.D. [35]: 3.64 O.D.
O.D. [36]: 0.286 O.D.
O.D. [37]: 0.329 O.D.
O.D. [38]: 1.78 O.D.
O.D. [39]: 1.78 O.D.
O.D. [40]: 1.18 O.D.
O.D. [41]: 1.27 O.D.
